According to the supplement of paper PMC7877785:
± gives the uncertainty stated by the source.

Test: self-splicing fitness, log relative to wild type (ln ratio); higher = more splicing; Tetrahymena group I intron in knt gene, E. coli kanamycin selection, DiMSum; sequences stand for … in CUCUCU…GGAGGGAAAAGUUAUCAGGCAUGCACCUGGUAGCUAGUCUUUAAACCAAUAGAUUGCAUCGGUUUAAAAGGCAAGACCGUCAAAUUGCGGGAAAGGGGUCAACAGCCGUUCAGUACCAAGUCUCAGGGGAAACUUUGAGAUGGCCUUGCAAAGGGUAUGGUAAUAAGCUGACGGACAUGGUCCUAACCACGCAGCCAAGUCCUAAGUCAACAGAUCUUCUGUUGAUAUGGAUGCAGUUCACAGACUAAAUGUCGGUCGGGGAAGAUGUAUUCUUCUCAUAAGAUAUAGUCGGACCUCUCCUUAAUGGGAGCUAGCGGAUGAAGUGAUGCAACACUGGAGCCGCUGGGAACUAAUUUGUAUGCGAAAGUAUAUUGAUUAGUUUUGGAGUACUCGUGGUCG
Method in brief: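 Pooled colonies went to amplicon sequencing on an Illumina HiSeq 2500 after six replicate transformations. The plates were LB agar with 100 μg/mL carbenicillin, 50 μM IPTG and 0.2% rhamnose, with or without 25 μg/mL kanamycin, incubated overnight at 37°C or 30°C. The E. coli BL21(DE3) library had all eight P1ex-region intron nucleotides randomised, the intron placed in the knt kanamycin-resistance gene on pET-22b(+). DiMSum fitness is the error-weighted combination of replicate fold changes, kanamycin against none, normalised to wild type.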

Sequence	self-splicing fitness (ln) (30 °C)	self-splicing fitness (ln) (37 °C)
AUUAAGCAAUAUUACGCUGU	-3.23 ± 0.16	-1.97 ± 0.19
UGUAAGCAAUAUUACGAAUG	-0.511 ± 0.077	-0.125 ± 0.099
GAAUAGCAAUAUUACGACUU	0.269 ± 0.073	0.548 ± 0.092
AUCCAGCAAUAUUACGCCCG	-1.84 ± 0.38	-1.04 ± 0.37
GUGAAGCAAUAUUACGAAAA	-1.44 ± 0.14	-0.831 ± 0.18
UUAGAGCAAUAUUACGGAAG	-2.58 ± 0.33	–
UGUAAGCAAUAUUACGAUCG	0.587 ± 0.097	-0.129 ± 0.11
GUCGAGCAAUAUUACGUAGU	-2.34 ± 0.12	-1.47 ± 0.11
AUCUAGCAAUAUUACGAUUC	-2.85 ± 0.18	-1.23 ± 0.16
CCUUAGCAAUAUUACGCCCU	-1.89 ± 0.48	–
AUACAGCAAUAUUACGCGGA	-2.02 ± 0.17	-1.74 ± 0.14
CCGAAGCAAUAUUACGUGCU	-4 ± 0.24	-2.88 ± 0.28
AUGAAGCAAUAUUACGGGCG	-0.667 ± 0.081	0.118 ± 0.1
GGCGAGCAAUAUUACGAAAU	-2.66 ± 0.25	-0.868 ± 0.19
CAGCAGCAAUAUUACGCGGA	-2.58 ± 0.14	-1.14 ± 0.11
AGUCAGCAAUAUUACGGCAU	0.126 ± 0.066	-0.106 ± 0.074
ACAUAGCAAUAUUACGGGCC	–	-1.59 ± 0.2
GCACAGCAAUAUUACGACAA	-1.18 ± 0.087	-1.22 ± 0.087
UAACAGCAAUAUUACGAUAU	-2.28 ± 0.18	-1.28 ± 0.2
UAACAGCAAUAUUACGUCAU	-3.81 ± 0.16	-1.74 ± 0.15
UCCAAGCAAUAUUACGUAGU	-1.27 ± 0.068	-0.483 ± 0.091
CGACAGCAAUAUUACGGGGU	-4.03 ± 0.17	-3.01 ± 0.17
GGGGAGCAAUAUUACGCUCA	-1.05 ± 0.15	-0.61 ± 0.21
AUCCAGCAAUAUUACGCUGC	-3.85 ± 0.19	-1.59 ± 0.15
ACAGAGCAAUAUUACGGACA	-2.99 ± 0.3	-2.45 ± 0.25

Sequence	self-splicing fitness (ln) (30 °C)	self-splicing fitness (ln) (37 °C)
CUCGAGCAAUAUUACGUUUU	-3.2 ± 0.13	-2.1 ± 0.17
GCGUAGCAAUAUUACGUAAG	-3.03 ± 0.23	-2.66 ± 0.25
AGCUAGCAAUAUUACGGCCC	-0.559 ± 0.2	0.0329 ± 0.35
UAAAAGCAAUAUUACGCCGG	-0.134 ± 0.11	0.0922 ± 0.14
GCCCAGCAAUAUUACGAACU	-1.26 ± 0.14	-1 ± 0.14
AACAAGCAAUAUUACGAGAU	-3.08 ± 0.14	-1.62 ± 0.12
ACUGAGCAAUAUUACGACGC	0.0713 ± 0.15	0.648 ± 0.2
GGCAAGCAAUAUUACGUCUC	-0.496 ± 0.087	0.539 ± 0.12
GGAGAGCAAUAUUACGGUCC	–	-1.17 ± 0.34
UGUAAGCAAUAUUACGGGAC	-2.45 ± 0.25	-2.62 ± 0.44
AUGAAGCAAUAUUACGGCCU	0.063 ± 0.094	0.456 ± 0.13
CAAUAGCAAUAUUACGAACU	-3.14 ± 0.27	-1.83 ± 0.18
GUGCAGCAAUAUUACGGUCA	-1.46 ± 0.12	-1.16 ± 0.11
UCAUAGCAAUAUUACGGCGA	-0.178 ± 0.07	-0.102 ± 0.083
GCACAGCAAUAUUACGCGGU	-4.01 ± 0.2	-1.87 ± 0.11
CACCAGCAAUAUUACGUGUA	-2.09 ± 0.065	-0.896 ± 0.069
GGACAGCAAUAUUACGUAUA	-0.645 ± 0.1	-0.388 ± 0.095
UUCUAGCAAUAUUACGCAUA	-0.852 ± 0.12	-0.774 ± 0.14
AGCAAGCAAUAUUACGUAGG	-2.75 ± 0.1	-2.1 ± 0.12
UUCGAGCAAUAUUACGUCGU	-3.29 ± 0.33	-1.24 ± 0.21
GUCGAGCAAUAUUACGUCUU	-2 ± 0.1	-1.39 ± 0.09
GCCCAGCAAUAUUACGGCGG	-3.37 ± 0.16	-1.93 ± 0.17
CGUAAGCAAUAUUACGCGCU	-2.03 ± 0.14	-1.52 ± 0.15
AGGUAGCAAUAUUACGUAGA	-3.995 ± 0.028	-2.07 ± 0.036
